Experimental data reported in IntAct's records for PubMed 17032765.

B1: Segment polarity protein dishevelled homolog DVL-2 (Mus musculus), Q60838 (parent)
chain: MAGSSAGGGGVGETKVIYHLDEEETPYLVKIPVPAERITLGDFKSVLQRPAGAKYFFKSMDQDFGVVKEEISDDNARLPCFNGRVVSWLVSSDTPQPEVAPPAHESRTELVPPPPPLPPLPPERTSGIGDSRPPSFHPNVSSSHENLEPETETESVVSLRRDRPRRRDSSEHGAGGHRPGGPSRLERHLAGYESSSTLMTSELESTSLGDSDEDDTMSRFSSSTEQSSASRLLKRHRRRRKQRPPRMERTSSFSSVTDSTMSLNIITVTLNMEKYNFLGISIVGQSNERGDGGIYIGSIMKGGAVAADGRIEPGDMLLQVNDMNFENMSNDDAVRVLRDIVHKPGPIVLTVAKCWDPSPQAYFTLPRNEPIQPIDPAAWVSHSAALTGAFPAYPGSSSMSTITSGSSLPDGCEGRGLSVHMDMASVTKAMAAPESGLEVRDRMWLKITIPNAFLGSDVVDWLYHHVEGFPERREARKYASGLLKAGLIRHTVNKITFSEQCYYVFGDLSGGCESYLVNLSLNDNDGSSGASDQDTLAPLPGATPWPLLPTFSYQYPAPHPYSPQPPPYHELSSYTYGGGSASSQHSEGSRSSGSTRSDGGAGRTGRPEERAPESKSGSGSESELSSRGGSLRRGGEPGGTGDGGPPPSRGSTGAPPNLRALPGLHPYGAPSGMALPYNPMMVVMMPPPPPPVSTAVQPPGAPPVRDLGSVPPELTASRQSFHMAMGNPSEFFVDVM

Variants of: B1
Conditions: with Ankrd6, Q69ZU8-1
Sequence of Ankrd6, Q69ZU8-1 (Q69ZU8 whole entry): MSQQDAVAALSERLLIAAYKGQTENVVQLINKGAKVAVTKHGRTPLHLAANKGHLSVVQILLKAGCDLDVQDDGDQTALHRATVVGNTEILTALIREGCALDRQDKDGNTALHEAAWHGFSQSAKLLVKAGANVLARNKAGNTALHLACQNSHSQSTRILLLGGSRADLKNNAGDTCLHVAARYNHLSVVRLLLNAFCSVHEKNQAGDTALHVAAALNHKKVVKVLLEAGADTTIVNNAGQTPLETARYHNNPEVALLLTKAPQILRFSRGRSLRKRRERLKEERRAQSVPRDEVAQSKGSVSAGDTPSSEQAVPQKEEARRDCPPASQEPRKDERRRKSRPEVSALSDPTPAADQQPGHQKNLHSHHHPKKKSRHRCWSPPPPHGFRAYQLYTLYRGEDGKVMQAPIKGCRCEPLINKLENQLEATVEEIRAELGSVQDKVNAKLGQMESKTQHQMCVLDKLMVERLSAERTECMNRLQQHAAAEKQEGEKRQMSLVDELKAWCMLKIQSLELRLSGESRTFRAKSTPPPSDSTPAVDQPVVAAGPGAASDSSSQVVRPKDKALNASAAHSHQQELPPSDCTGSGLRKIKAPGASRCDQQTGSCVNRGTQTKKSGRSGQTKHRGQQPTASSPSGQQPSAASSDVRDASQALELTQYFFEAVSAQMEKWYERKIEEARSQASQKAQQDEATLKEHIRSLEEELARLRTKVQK

Row | Variant | effect of a mutation on the interaction
1 | K446M | decreasing interaction strength
